Earlier results in US20250320497A1, “COMPOSITIONS AND METHODS FOR TREATING HEPATITIS B VIRUS (HBV) INFECTION AND HBV-ASSOCIATED DISEASES” (priority 2022, published 2025).

System: chronic HBV infection
Settings: Phase 1, patients with chronic HBV infection

B1: GC 1102: fully human anti-HBsAg mAb in development for chronic HBV infection (antibody, chains of the INN, looked up, V domains shown)
VH: EVQLVESGGGLVKPGGSLRLSCSASGFSLTKYKMTWVRQAPGKGLEWVSSISSTSRDIDYADSVKGRFTISRDNAKNSLFLQMSSLRVDDTAVYYCTRDGWLWGWDVRSNYYYNALDVWGQGTTVTVSS
VL: DIVVTQSPSSLSASVGDRVTITCRASQGIYNSIAWYQQKPGKAPKLLLYSTSTLLSGVPSRFSGSGSGTDYTLTITNLQPEDFATYYCQQYFVTPETFGQGTKLEIK
lowering of HBsAg: 2-3 log10 IU/mL
tolerability: well tolerated
